± gives the standard deviation of the averaged measurements.
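Note: PSI is a weighted mean of sequencing reads over stability bins, variants kept only with over 10 reads, mCherry proximal and sfGFP distal, peptide attached via GGGS linker.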

For the data set, the system named is Saccharomyces cerevisiae. Nature of the data set: protein stability index of tFT-peptide fusion (C-terminal peptide) (PSI (0-1 scale)); higher = more stable (slower turnover). As to conditions: genetic background: wild type; temperature: 30 C.
Turning to LFFGSNLFLLAL, the protein stability index was found to be 0.595 ± 0.043.
Sequence LFFNLLLFFSFI yielded a protein stability index of 0.488 ± 0.018.
Then LFFSLSLVVPTG, with 0.633 ± 0.095; and LFGAVGGGVEVG, with 0.668 ± 0.12; and LFGVRFTLGYLF, with 0.554 ± 0.016.
To LFLGSFSRSLWP belongs 0.755 ± 0.015; to LFLLYPRLTLPL, 0.621 ± 0.023.
To LFLPLPGPLRSS belongs 0.79 ± 0.13; to LFPAAPAPPPPP, 0.658 ± 0.028.
Regarding LFPAIWPRVLSW, the protein stability index was determined as 0.566 ± 0.02.
Then LFPRCYFARIVV, with 0.484 ± 0.033.
To LFSSQAGGRLES belongs 0.67 ± 0.019; to LFTFEADKCDLT, 0.774 ± 0.092; to LFTSCPPDVRSL, 0.667 ± 0.012.
To LFVAFGAAESFE belongs 0.67 ± 0.098; to LGAPPPLGLSPS, 0.733 ± 0.019; to LGASPTWGPARS, 0.656 ± 0.016.
As for LGCVDRMGRVFG, the protein stability index turned out to be 0.704 ± 0.079.
Then LGEHHKEQEKNV, with 0.654 ± 0.023; and LGEYNRKKKPRI, with 0.6446 ± 0.0034.
To LGFDRGGGVAGM belongs 0.674 ± 0.034.
Then LGGERERGRKRG, with 0.672 ± 0.048; and LGGGEGKRVCEG, with 0.668 ± 0.017; and LGGGGVGVGSLV, with 0.679 ± 0.014.
Take LGGGGWGGACGE: the protein stability index amounted to 0.66 ± 0.02.
Then LGGGNVGHSRIW, with 0.623 ± 0.073; and LGGICPLYDLVF, with 0.667 ± 0.076; and LGGLKCGRLADS, with 0.656 ± 0.041.
To LGGLRRGSGREG belongs 0.678 ± 0.015; to LGGLYGTAMSCT, 0.683 ± 0.023; to LGGRWVLGVRGV, 0.694 ± 0.029.
For LGGSNRPCVRSI, the protein stability index worked out at 0.697 ± 0.011.
Then LGGSVAIWSWNP, with 0.763 ± 0.12; and LGGWAGLRCGGF, with 0.704 ± 0.026.
In the case of LGILVFRGASFL, the protein stability index is 0.7351 ± 0.007.
Take LGLCQVLFSFRV: the protein stability index was determined as 0.56816 ± 0.00044.
To LGLEALRETSQP belongs 0.6448 ± 0.005; to LGLSDPERLFVI, 0.664 ± 0.025.
For LGMEPPWIYSCQ, the protein stability index worked out at 0.6851 ± 0.0019.
Then LGRGGGGPLSGG, with 0.717 ± 0.041; and LGRLFPTSLPPR, with 0.739 ± 0.17; and LGRLGAFITQPA, with 0.671 ± 0.059.
To LGRMCSRITVGV belongs 0.543 ± 0.026; to LGRPLLYALFFP, 0.724 ± 0.048.
Then LGRRGLSMCGCV, with 0.634 ± 0.018.
LGRVLSFGHAFV had a protein stability index of 0.698 ± 0.021.
Then LGSASRQLARPR, with 0.66 ± 0.12.
To LGSVVADGPHKL belongs 0.625 ± 0.0097; to LGVAMSKCLEFR, 0.684 ± 0.0083.
Then LGVFVAFGGFGV, with 0.605 ± 0.048; and LGVGGRGVVPGA, with 0.7 ± 0.031; and LGWGWVWSWGRG, with 0.728 ± 0.052.
LHISYPVPPLRM came in with a protein stability index of 0.633 ± 0.11.
To LHNQTLLLSEDD belongs 0.652 ± 0.037; to LIALLETRTWRT, 0.676 ± 0.015.
Then LIAVASSGWKQS, with 0.7145 ± 0.0023; and LICQNPVADPRT, with 0.711 ± 0.042; and LIFKLQLPSPWL, with 0.643 ± 0.042.
Then LIHGRFWVIRVD, with 0.616 ± 0.0092.
With LIKSEECKNTDI, the protein stability index was 0.704 ± 0.033.
To LILLLTPPVIHH belongs 0.743 ± 0.051; to LIRLLPPPPAVF, 0.487 ± 0.068.
Then LISHHSEFPVIL, with 0.744 ± 0.031; and LISNIFSFEWLW, with 0.622 ± 0.032.

Values taken from the supplement of paper PMC10724198.
